Reference: patent US20260274991A1 (TRIVENI BIO, published 2026)

Legend:
[1] = target: T1, human trypsin 2 with serine to alanine mutation (including a His tag at C terminus) (human, UniProt P07478 25-247, limits assumed); test: SPR (Biacore), antibody captured on Protein A chip, single-cycle kinetics, 25 C
T1 construct: also called Trypsin 2 S to A
Experimental: (§1) Antibody binding kinetic experiments via Biacore were performed to screen for anti-trypsin 1/trypsin 2 antibodies having high affinity to the respective targets. All screening assays were performed at 25 C. The running buffer used was 20 mM HEPES, 300 mM NaCl, 1 mM CaCl₂, 0.01% Tween-20, pH 7.5. Antibodies (1 ug/mL) were captured on Fc2-4 of a Series S ProteinA Sensor Chip (Cytiva) flowing at 10 uL/min for 30 s. Kinetics measurements were made in single-cycle kinetics mode with a series of 4-5 concentrations with top concentration of 10-200 nM and serial dilution 4-fold. Contact time was typically 180-300 s and dissociation time ranged from 300-3600 s. Flow rate of 30 uL/min was typically used. The sensor chip was regenerated with 10 mM glycine, pH 1.5 with a contact time of 30 s flowing at 50 uL/min.

[2] = target: T2, human trypsin 1 with serine to alanine mutation (including a His tag at C terminus) (human, UniProt P07477 24-247); test: as above
T2 construct: also called Trypsin 1 S to A
Experimental: as §1

[3] = target: human PRSS1 (R&D Systems), activated with enterokinase (human, UniProt P07477 24-247); test: cell-based or functional assay
[4] = target: PRSS2 (R&D Systems), activated with enterokinase (human, UniProt P07478 24-247); test: cell-based or functional assay
Sequence of PRSS2 (R&D Systems), activated with enterokinase (P07478 24-247 limits assumed): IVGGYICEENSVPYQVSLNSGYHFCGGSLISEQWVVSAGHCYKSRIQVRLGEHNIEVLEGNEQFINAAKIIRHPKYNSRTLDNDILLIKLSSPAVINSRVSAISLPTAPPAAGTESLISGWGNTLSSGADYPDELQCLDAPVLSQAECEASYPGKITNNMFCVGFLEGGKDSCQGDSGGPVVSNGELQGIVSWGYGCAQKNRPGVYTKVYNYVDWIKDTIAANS

Native Trypsin (abcam) = test: cell-based or functional assay

T1 sequence (P07478 other isoform, or with tags, fused parts or gaps limits assumed): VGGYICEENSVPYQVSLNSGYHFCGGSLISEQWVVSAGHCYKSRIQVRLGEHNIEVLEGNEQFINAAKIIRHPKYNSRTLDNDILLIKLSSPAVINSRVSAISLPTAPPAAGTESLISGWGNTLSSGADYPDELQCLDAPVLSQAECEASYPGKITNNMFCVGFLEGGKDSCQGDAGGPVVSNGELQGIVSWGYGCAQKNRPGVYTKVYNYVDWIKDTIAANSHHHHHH

Binder | Kd [1] [nM] | Kd [2] [nM] | IC50 Against 1 nM hTryp-1 [3] [nM] | IC50 Against 1 nM hTryp-2 [4] [nM] | IC50 Against 0.25 nM Native Trypsin (Native Trypsin (abcam)) [nM]
Trypsin 1/Trypsin 2-Dual-L3-Ab1 (antibody, V domains shown) VH: not shown VL: EIVMTQSPATLSVSPGERATLSCRASQSVGSNLAWYQQKPGQAPRLLIYGASTRATGIPARFSGSGSGTEFTLTISSLQSEDFAVYYCQQFHNWPPLTFGGGTKVEIK | 0.159 | 0.0177 | 5 | 16 | 
Trypsin 1/Trypsin 2-Dual-L5-Ab1 (antibody, V domains shown) VH: not shown VL: EIVMTQSPATLSVSPGERATLSCRASQSVGSNLAWYQQKPGQAPRLLIYGASTRATGIPARFSGSGSGTEFTLTISSLQSEDFAVYYCQQFHNWPPLTFGGGTKVEIK | 0.227 | 0.151 | 45 | 23 | 
Trypsin 1/Trypsin 2-Dual-L1-Ab1 (antibody, V domains shown) VH: EVQLLESGGGLVQPGGSLRLSCAASGFTFSSYAMSWVRQAPGKGLEWVSAISASGGSTYYADSVKGRFTISRDNSKNTLYLQMNSLRAEDTAVYYCARGSPIGYSYARVSYYYYMDVWGKGTTVTVSS VL: DIQMTQSPSSVSASVGDRVTITCRASQGISRWLAWYQQKPGKAPKLLIYAASSLQSGVPSRFSGSGSGTDFTLTISSLQPEDFATYYCQQGNSFPLTFGGGTKVEIK | 0.763 | 2.54 | 63 | 79 | 
Trypsin 1/Trypsin 2-Dual-L4-Ab2 (antibody, V domains shown) VH: QVQLVQSGAEVKKPGASVKVSCKASGYTFTDYAISWVRQAPGQGLEWMGWISASTADTNYAQKLQGRVTMTTDTSTSTAYMELRSLRSDDTAVYYCARGDEVVGKMTYYYGMDVWGQGTTVTVSS VL: DIQMTQSPSSVSASVGDRVTITCRASQGISRWLAWYQQKPGKAPKLLIYAASSLQSGVPSRFSGSGSGTDFTLTISSLQPEDFATYYCQQANSFPITFGGGTKVEIK | 0.0372 | < 0.01 | 2.07 | 2.03 | 5.51
Trypsin 1/Trypsin 2-Dual-L1-Ab2 (antibody, V domains shown) VH: EVQLLESGGGLVQPGGSLRLSCAASGFTFGDYAMWWVRQAPGKGLEWVSAISASGDVTYYADSVKGRFTISRDNSKNTLYLQMNSLRAEDTAVYYCARGSLIGYSYARVSYYYYSDVWGKGTTVTVSS VL: DIQMTQSPSSVSASVGDRVTITCRASQGISRWLAWYQQKPGKAPKLLIYAASSLQSGVPSRFSGSGSGTDFTLTISSLQPEDFATYYCQQGWSFPLTFGGGTKVEIK | < 0.01 | < 0.01 | 3.7 | 5.33 | 7.98
Trypsin 1/Trypsin 2-Dual-L2-Ab4 (antibody, V domains shown) VH: QVQLQESGPGLVKPSETLSLTCTVSGGSISSHYWHWIRQPAGKGLEWIGRIHTSGSTFYNPSLKSRVTMSVDTSKNQFSLKLSSVTAADTAVYYCARDLTNYGWSKSIRFYGMDVWGQGTTVTVSS VL: DIQMTQSPSSLSASVGDRVTITCQASQDISNYLNWYQQKPGKAPKLLIYDASNLETGVPSRFSGSGSGTDFTFTISSLQPEDIATYYCQQTDNFITFGGGTKVEIK | 0.00904 | < 0.01 | 3.71 | 5.6 | 4.97
Trypsin 1/Trypsin 2-Dual-L2-Ab1 (antibody, V domains shown) VH: QVQLQESGPGLVKPSETLSLTCTVSGGSISSYYWSWIRQPAGKGLEWIGRIYTSGSTNYNPSLKSRVTMSVDTSKNQFSLKLSSVTAADTAVYYCARDLTNYGSGKSIRFYGMDVWGQGTTVTVSS VL: DIQMTQSPSSLSASVGDRVTITCQASQDISNYLNWYQQKPGKAPKLLIYDASNLETGVPSRFSGSGSGTDFTFTISSLQPEDIATYYCQQDDNFITFGGGTKVEIK | 2.2 | 2.61 | 46 | 79 | 

Continued by falling Kd [1], values first:

Kd [1] [nM] | Kd [2] [nM] | IC50 Against 1 nM hTryp-1 [3] [nM] | IC50 Against 1 nM hTryp-2 [4] [nM] | IC50 Against 0.25 nM Native Trypsin (Native Trypsin (abcam)) [nM] | Binder
0.547 | 0.0809 | 1.8 | 14 |  | Trypsin 1/Trypsin 2-Dual-L4-Ab1 (antibody, V domains shown) VH: QVQLVQSGAEVKKPGASVKVSCKASGYTFTSYGISWVRQAPGQGLEWMGWISAYSGDTNYAQKLQGRVTMTTDTSTSTAYMELRSLRSDDTAVYYCARGDEVVGKMTYYYGMDVWGQGTTVTVSS VL: DIQMTQSPSSVSASVGDRVTITCRASQGISRWLAWYQQKPGKAPKLLIYAASSLQSGVPSRFSGSGSGTDFTLTISSLQPEDFATYYCQQANSFPITFGGGTKVEIK
0.0451 | 0.00841 | 2.31 | 2.01 | 4.43 | Trypsin 1/Trypsin 2-Dual-L4-Ab3 (antibody, V domains shown) VH: QVQLVQSGAEVKKPGASVKVSCKASGYTFTDYAISWVRQAPGQGLEWMGWISASTADTNYAQKLQGRVTMTTDTSTSTAYMELRSLRSDDTAVYYCARGDEVVGKRTYYIGMDVWGQGTTVTVSS VL: DIQMTQSPSSVSASVGDRVTITCRASQGISRWLAWYQQKPGKAPKLLIYAASSLQSGVPSRFSGSGSGTDFTLTISSLQPEDFATYYCQQANSFPITFGGGTKVEIK
0.0292 | 0.00562 | 2.75 | 4.29 | 5.95 | Trypsin 1/Trypsin 2-Dual-L3-Ab2 (antibody, V domains shown) VH: QVQLVQSGAEVKKPGASVKVSCKASGYTFTDHYMHWVRQAPGQGLEWMGAINPSSGGTAYAQKFQGRVTMTRDTSISTAYMELSRLRSDDTAVYYCARVGGAARVGKAYTASAFDIWGQGTMVTVSS VL: EIVMTQSPATLSVSPGERATLSCRASQSVGSNLAWYQQKPGQAPRLLIYGASTRATGIPARFSGSGSGTEFTLTISSLQSEDFAVYYCQQFHNWPPLTFGGGTKVEIK
0.0274 | 0.00465 | 2.4 | 2.7 |  | Trypsin 1/Trypsin 2-Dual-L4-Ab5 (antibody, V domains shown) VH: QVQLVQSGAEVKKPGASVKVSCKASGYTFTDYAISWVRQAPGQGLEWMGWISASTADTNYAQKLQGRVTMTTDTSTSTAYMELRSLRSDDTAVYYCARQDEVVGKMTYYIGTDVWGQGTTVTVSS VL: DIQMTQSPSSVSASVGDRVTITCRASQGISRWLAWYQQKPGKAPKLLIYAASSLQSGVPSRFSGSGSGTDFTLTISSLQPEDFATYYCQQANSFPITFGGGTKVEIK
0.0219 | 0.0118 | 2.3 | 2.44 | 4.63 | Trypsin 1/Trypsin 2-Dual-L2-Ab3 (antibody, V domains shown) VH: QVQLQESGPGLVKPSETLSLTCTVSGGSISSHYWHWIRQPAGKGLEWIGRIATSGSTYYNPSLKSRVTMSVDTSKNQFSLKLSSVTAADTAVYYCARDLTNYGITKSIRFYGMDVWGQGTTVTVSS VL: DIQMTQSPSSLSASVGDRVTITCQASQDISNYLNWYQQKPGKAPKLLIYDASNLETGVPSRFSGSGSGTDFTFTISSLQPEDIATYYCQQVDNFITFGGGTKVEIK
0.0206 | < 0.01 | 2.05 | 2.01 | 5.48 | Trypsin 1/Trypsin 2-Dual-L4-Ab4 (antibody, V domains shown) VH: QVQLVQSGAEVKKPGASVKVSCKASGYTFTDYAISWVRQAPGQGLEWMGWISASTADTNYAQKLQGRVTMTTDTSTSTAYMELRSLRSDDTAVYYCARGTEVVGKMTVYLGMDVWGQGTTVTVSS VL: DIQMTQSPSSVSASVGDRVTITCRASQGISRWLAWYQQKPGKAPKLLIYAASSLQSGVPSRFSGSGSGTDFTLTISSLQPEDFATYYCQQANSFPITFGGGTKVEIK
0.00988 | 0.000891 | 2.67 | 3.3 | 5.51 | Trypsin 1/Trypsin 2-Dual-L2-Ab2 (antibody, V domains shown) VH: QVQLQESGPGLVKPSETLSLTCTVSGGSISSNYWHWIRQPAGKGLEWIGRIHTSGSTFYNPSLKSRVTMSVDTSKNQFSLKLSSVTAADTAVYYCARDITNYGSGKSIRFYPMDVWGQGTTVTVSS VL: DIQMTQSPSSLSASVGDRVTITCQASQDISNYLNWYQQKPGKAPKLLIYDASNLETGVPSRFSGSGSGTDFTFTISSLQPEDIATYYCQQDDTFITFGGGTKVEIK
0.00648 | < 0.01 | 5.87 | 6.09 | 9.82 | Trypsin 1/Trypsin 2-Dual-L5-Ab2 (antibody, V domains shown) VH: QVQLVQSGAEVKKPGASVKVSCKASGYTFEGHYMHWVRQAPGQGLEWMGAINPYSGQTNYAQKFQGRVTMTRDTSISTAYMELSRLRSDDTAVYYCARDFVLLLRQSRILHESAFDIWGQGTTVTVSS VL: EIVMTQSPATLSVSPGERATLSCRASQSVGSNLAWYQQKPGQAPRLLIYGASTRATGIPARFSGSGSGTEFTLTISSLQSEDFAVYYCQQFHNWPPLTFGGGTKVEIK
